Each block holds one binder with its values, some of them ahead of it.
Target: sim3-GFP (Arabidopsis thaliana) (UniProt P93002)
Experiment: sim3-GFP IP, LC-MS/MS

Chain of sim3-GFP (Arabidopsis thaliana) (P93002 other isoform, or with tags, fused parts or gaps): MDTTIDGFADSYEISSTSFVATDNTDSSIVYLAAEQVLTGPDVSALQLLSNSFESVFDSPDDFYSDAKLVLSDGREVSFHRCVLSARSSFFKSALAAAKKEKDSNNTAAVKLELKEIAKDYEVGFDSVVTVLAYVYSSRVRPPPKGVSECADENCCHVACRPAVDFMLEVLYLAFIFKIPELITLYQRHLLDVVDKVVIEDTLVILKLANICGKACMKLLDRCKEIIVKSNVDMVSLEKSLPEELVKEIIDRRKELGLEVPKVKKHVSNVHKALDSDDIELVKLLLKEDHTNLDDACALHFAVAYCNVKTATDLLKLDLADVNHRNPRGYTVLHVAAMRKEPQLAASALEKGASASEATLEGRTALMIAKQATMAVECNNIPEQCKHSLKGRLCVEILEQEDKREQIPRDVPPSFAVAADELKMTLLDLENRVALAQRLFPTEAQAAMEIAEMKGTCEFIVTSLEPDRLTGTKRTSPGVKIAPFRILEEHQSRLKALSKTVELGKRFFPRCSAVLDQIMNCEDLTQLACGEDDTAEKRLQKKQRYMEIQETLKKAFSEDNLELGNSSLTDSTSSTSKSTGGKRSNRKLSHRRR

Normalized Fold Change: SA vs Mock: 18.5 fold
B1: TAT3, tyrosine aminotransferase 3 (protein, UniProt Q9SK47 1-445, looked up)
Probable aminotransferase TAT3: MASNGVTNCNANANVWRFKGNGATSDAAAVTLRKLAFGMFKNCTMNSGKTILFPTPGEPSAHSNFRTCPEAEEAVAAAARSGMANSYAPSPGVFKARRAVAEYLNGELPTKLKAEDVYITGGCNQAIEIVIDSLAGNPSANILLPRPGYPHYDARAVYSGLEIRKYDLLPESDWEINLDGLEAAADENTVAMVIINPNNPCGNVYTYDHLNKVAEMARKLGIMIISDEVYDHVVYGDKPFIPMGKFASIAPVITLGSISKGWVNPGWRVGWIAMNDPNGIFVSTGVVQAIEDFLDLTPQPSFILQEALPDILEKTPKEFFEKKIKAMRRNVELSCERLKDIPCLFCPKKPESCSYLWLKLDTSMLNNIKNDFDFCTKLVSEESLILIPGVALGAENWVRISIGTDESVVQEIFDRLKGFYDRHAISKEAIKLSGHAINQIVVSVN

Normalized Fold Change: SA vs Mock: 17.7 fold
B2: NIMIN1 (protein, UniProt Q9FNZ5 1-142, looked up)
Protein NIM1-INTERACTING 1: MYPKQFSLYNYSLETMSKDENVESKETIRVDKRVREDEEEEEEKKIDTFFKLIKHYQEARKRRREELAENSGVVRRKSNGGERSGIVVPAFQPEDFSQCRTGLKPPLMFVSDHKEENTKVEQEEDQTEERNEDKALDLNLAL

More lines, now with the values behind:

B3: LURP1, Protein of unknown function (DUF567) (protein, UniProt Q9ZQR8 1-207, looked up)
Protein LURP1: MQQPCVIVGSKYCSPNPVGLAIVRKVMKITDGNFVITSADGKLLFKVKDPLFSLHGKRILLDCSGAKVLTLRGKMMTMHDRWQVFRGGSTEEGALLYTVKRSSMIQLAPKLEVFLANNVEEKICDFKVKGAWLDDSCVVYAGDSDTIIAHMCGKQTMRGFFFGKDHFSVTVDKNVDYAFIASLIVILVEIEKAGFITKMTTQMIIGF
Normalized Fold Change: SA vs Mock: 4.63 fold

B4: DMR1, HSK, homoserine kinase (protein, UniProt Q8L7R2 35-370, looked up)
Homoserine kinase: CRASVQTLVAVEPEPVFVSVKTFAPATVANLGPGFDFLGCAVDGLGDHVTLRVDPSVRAGEVSISEITGTTTKLSTNPLRNCAGIAAIATMKMLGIRSVGLSLDLHKGLPLGSGLGSSAASAAAAAVAVNEIFGRKLGSDQLVLAGLESEAKVSGYHADNIAPAIMGGFVLIRNYEPLDLKPLRFPSDKDLFFVLVSPDFEAPTKKMRAALPTEIPMVHHVWNSSQAAALVAAVLEGDAVMLGKALSSDKIVEPTRAPLIPGMEAVKKAALEAGAFGCTISGAGPTAVAVIDSEEKGQVIGEKMVEAFWKVGHLKSVASVKKLDNVGARLVNSVSR
Normalized Fold Change: SA vs Mock: 2.16 fold

B5: ATCHR12, Homeotic gene regulator (protein, UniProt F4J9M5 1-1102, looked up)
Probable ATP-dependent DNA helicase CHR12: MVAQQLQERCGGTSQEDPVETTKSLICALNYISRDLPLPPHLFTAVSSIYHGASSSSLSDSDVSPPLPTSPPANKAPYGADLMGEFEDALLKQRPDCESGSRLIQLLDNRNKSHIQRRLSELEELPSTRGEDLQAKCLLELYGLKLRELQGKVRTAVSSEFWLRLNCADVSSQVFDWGMMRLPRPFYGVGDPFAMEADDQFRKKRDAERLSRLEEEEKNLIETAKRKFFAEVLNAVREFQLQIQATQKRRRQRNDGVQAWHGRQRQRATRAEKLRLMALKSDDQEAYMKLVKESKNERLTTLLEETNKLLANLGAAVQRQKDAKLPEGIDLLKDSESDLSELDAPRSEPLQDLLPDQDIDITESDNNDDSNDLLEGQRQYNSAIHSIQEKVTEQPSLLEGGELRSYQLEGLQWMVSLFNNNLNGILADEMGLGKTIQTISLIAYLLENKGVPGPYLIVAPKAVLPNWVNEFATWVPSIAAFLYDGRLEERKAIREKIAGEGKFNVLITHYDLIMRDKAFLKKIEWYYMIVDEGHRLKNHESALAKTLLTGYRIKRRLLLTGTPIQNSLQELWSLLNFLLPHIFNSVQNFEEWFNAPFADRGNVSLTDEEELLIIHRLHHVIRPFILRRKKDEVEKFLPGKTQVILKCDMSAWQKVYYKQVTDMGRVGLQTGSGKSKSLQNLTMQLRKCCNHPYLFVGGDYNMWKKPEIVRASGKFELLDRLLPKLRKAGHRILLFSQMTRLIDVLEIYLTLNDYKYLRLDGTTKTDQRGLLLKQFNEPDSPYFMFLLSTRAGGLGLNLQTADTVIIFDSDWNPQMDQQAEDRAHRIGQKKEVRVFVLVSVGSVEEVILERAKQKMGIDAKVIQAGLFNTTSTAQDRREMLEEIMRKGTSSLGTDVPSEREINRLAARSEDEFWMFERMDEERRRKENYRARLMQEQEVPEWAYTTQTQEEKLNNGKFHFGSVTGKRKRKEIVYSDTLSELQWLKAVESGEDLSKLSMRYNRREENASNTKTSTSKKVIESIQTVSDGTSEEDEEEQEEERAKEMSGKQRVDKSEEEEEEGEEENDGKAIFKWNTHKKKRSRYSFTCSSSDSRAQSSNGSRRK
Normalized Fold Change: SA vs Mock: 9.34 fold
